B1: anti-CD166 ADC (conjugate)
VH: QITLKESGPTLVKPTQTLTLTCTFSGFSLSTYGMGVGWIRQPPGKALEWLANIWWSEDKHYSPSLKSRLTITKDTSKNQVVLTITNVDPVDTATYYCVQIDYGNDYAFTYWGQGTLVTVSS
VL: DIVMTQSPLSLPVTPGEPASISCRSSKSLLHSNGITYLYWYLQKPGQSPQLLIYQMSNLASGVPDRFSGSGSGTDFTLKISRVEAEDVGVYYCAQNLELPYTFGQGTKLEIK

Experiments:
HCC1806 cells = test: Immunogenic cell death markers in HCC1806 cells; assay type: cell-based, human; details: HCC1806, 48 hours; for secreted HMGB1: ELISA
Protocol: (§1) ICD can be measured by markers such as the expression of calreticulin on the surface of cancer cells and secretion of HMGB1. In this exemplary study, A375 cells (ATCC) derived from a human malignant melanoma were cultured in RPMI-1640™ medium with 10% (v/v) fetal bovine serum for 48 hours in the presence of the indicated amount of drug. HCC1806 cells (ATCC) derived from human breast carcinoma were cultured in DME medium for 48 hours in the presence of the indicated amount of drug. CT26 cells and CT26 huCD166 cells (CT26 cells expressing human CD166 polypeptide as discussed herein) were cultured in RPMI-1640™ medium with 10% (v/v) fetal bovine serum for 72 hours in the presence of the indicated amount of drug. Following incubation, calreticulin expression was detected by flow cytometry using a FITC conjugated calreticulin antibody (Novus Bio, clone 1G6A7; #NBP1-47518F). HMGB1 protein was detected by ELISA (Tecan HMGB1 ELISA kit, #NC9959947).

dendritic cells (MoDCs) = test: Dendritic cell maturation markers by flow cytometry; assay type: cell-based, human; parameters: dose or concentration left out as unconfirmed; details: 48 hours, compared to untreated cells
Protocol: In this study, dendritic cells were cultured with […] anti-CD166 antibody conjugated to DM4 (CD166-DM4 ADC) or a dendritic cell maturation cocktail (Stem Cell Technology DC maturation kit (#10989)) for 48 hours. […] The MoDCs were then assessed for maturation by flow cytometric measurement of dendritic cell maturation markers CD80 (2D10 antibody, BioLegend), CD83 (HB15e antibody, BioLegend), HLA-DR (L243 antibody, BioLegend), and CD86 (IT2.2 antibody, BioLegend).

CT26 cells = test: Calreticulin surface expression on CT26 cells; assay type: cell-based, mouse; details: CT26, 72 hours
Protocol: as §1

A375 cells = test: Immunogenic cell death markers in A375 cells; assay type: cell-based, human; details: A375, 48 hours; for secreted HMGB1: ELISA
Protocol: as §1

CT26 huCD166 cells = test: Calreticulin surface expression on CT26 huCD166 cells; assay type: cell-based, mouse; details: CT26 huCD166, 72 hours
Protocol: as §1

[1] = tested on: human dendritic cells (MoDC); test: Cytotoxicity towards fully activated MoDC (CytoTox-Glo); details: 48 hours
activated human T cells = test: Cytotoxicity towards activated T cells (CellTiter-Glo)
[2] = tested on: allogenic CD4+ T cells co-cultured with MoDCs; assay type: cell-based, human

| Molecule | expression of calreticulin (CRT) (HCC1806 cells) | secreted HMGB1 (HCC1806 cells) | expression of CD83 (dendritic cells (MoDCs)) | expression of CD86 (dendritic cells (MoDCs)) | surface expression of calreticulin (CRT) (CT26 cells) | expression of calreticulin (CRT) (A375 cells) | secreted HMGB1 (A375 cells) | surface expression of calreticulin (CRT) (CT26 huCD166 cells) | cytotoxic activity towards MoDCs [1] | doses at which cytotoxicity was observed ([1]; fully activated MoDC) | cytotoxic activity towards activated T cells (activated human T cells; 72 hours treatment) | doses at which cytotoxicity was observed (activated human T cells; activated T cells, 72 hours) | production of IL-2 by allogeneic T cells [2] |
| --- | --- | --- | --- | --- | --- | --- | --- | --- | --- | --- | --- | --- | --- |
| COc1cc2cc(c1Cl)N(C)C(=O)C[C@H](OC(=O)[C@H](C)N(C)C(=O)CCC(C)(C)S)[C@]1(C)O[C@H]1[C@H](C)[C@@H]1C[C@@](O)(NC(=O)O1)[C@H](OC)/C=C/C=C(\C)C2 [free DM4, DM4, reference compound] | increased expression | increased amounts | slightly increased | slightly increased | increased surface expression | increased expression | increased amounts | increased surface expression | – | – | – | – | – |
| B1 | increased expression | increased amounts | slightly increased | slightly increased | increased surface expression | increased expression | increased amounts | increased surface expression | minimal cytotoxic activity | above 10 nM | minimal cytotoxic activity | above 10 nM | slightly increase |

Source: patent US20220233705A1, “COMBINED THERAPIES OF ACTIVATABLE IMMUNE CHECKPOINT INHIBITORS AND CONJUGATED ACTIVATABLE ANTIBODIES” (CYTOMX THERAPEUTICS, INC., priority 2019, published 2022)
